Laboratory results: paper PMC7531572

Target: mAb1 wild-type (monoclonal antibody IgG1) (human)
Test: SPR

% of maximal binding response of wild-type antibody: 100%
B1: recombinant mouse FcγRIV (receptor)
chain: GLQKAVVNLDPKWVRVLEEDSVTLRCQGTFSPEDNSIKWFHNESLIPHQDANYVIQSARVKDSGMYRCQTALSTISDPVQLEVHMGWLLLQTTKWLFQEGDPIHLRCHSWQNRPVRKVTYLQNGKGKKYFHENSELLIPKATHNDSGSYFCRGLIGHNNKSSASFRISLGDPGSPSMFPPWHQ
